Assay [1] addresses Gyrase (Escherichia coli) (UniProt P0AES4). As to conditions: cited from earlier work.
Assay [2] addresses E. coli DNA gyrase A2B2 complex (E. coli) (UniProt P0AES4).
Assay [3] addresses GyrB 43 kDa domain (GyrB43), N-terminal ATPase-transducer domain of E. coli GyrB (E. coli).
The target of assay [4] is E. coli DNA gyrase subunit B, full-length untagged (E. coli) (UniProt P0AES6).
The target in assay [5] is GyrB 43 kDa domain (GyrB43), N-terminal ATPase-transducer domain of E. coli GyrB (E. coli). The source holds these as a separate data set.
In assay [6] the target is E. coli DNA gyrase A2B2 complex (E. coli) (UniProt P0AES4). The assay is described as follows: native gel or EMSA; 20 nM 147 bp pBR322 dsDNA fragment with 0.2 μM reconstituted gyrase in EMSA buffer, QnrB1 added as indicated; 30 min at 25°C; 6% polyacrylamide gel in TBM; IC50 = QnrB1 concentration that halves the bound DNA. (In general: Mobility shift assays separate free from complexed probe on a gel.)

The target in assay [7] is [Alexa488]-QnrB1 (QnrB1-His, N-terminally labelled with AlexaFluor 488). The assay is described as follows: fluorescence polarisation; as a1 but subunits with 1 mM ADPNP, incubated for an additional 1 h at room temperature with addition of 2 mM MgCl2.
For assay [8] the target is unchanged. Description: fluorescence polarisation; fluorescence anisotropy; 50 nM Alexa488-labelled QnrB1 mixed with gyrase subunit(s) in EMSA buffer (30 mM Tris-Cl pH 7.5, 75 mM KCl, 6% glycerol, 2 mM MgCl2, 1 mM DTT), 10 min at room temperature; one site specific binding fit.

One may read the Ki as the dissociation constant of the complex between target and ligand, obtained from inhibition or displacement. Consider YacG (from UniProt C4ZRJ5), for which the inhibition constant Ki in assay [1] is 35 nM.

Usually IC50 stands for the concentration that inhibits the measured activity by half. The low end stands for inhibition by little substance, the high end for a need for much substance. In the case of “QnrB1 with a C-terminal 6xHis tag (wild type, unlabelled) (natural protein)”, the DNA-independent ATP hydrolysis rate of 50 nM gyrase (A2B2) with 5 μM QnrB1 in assay [2] came out at 3 fold. Besides, the ATPase reaction rate of 4 μM GyrB43 with 5 μM QnrB1 against no QnrB1 in assay [3] worked out at 17 fold. This substance also showed an ATPase activity of the full-length GyrB subunit with QnrB1 (not shown) in assay [4] below 2 fold. In assay [5], this substance gave a QnrB1-dependent activation of GyrB43 ATPase activity (4 μM GyrB43, 1 mM ATP), Km for QnrB1 of a Michaelis-Menten fit of 3.61 µM. Also, the concentration for half-maximal inhibition (IC50) in assay [6] was 10900 nM.

The Kd is a measure of binding affinity in units of concentration. High values mean weaker binding, low ones tighter binding. As for “E. coli DNA gyrase subunit B, full-length untagged (from UniProt P0AES6 1-804) (natural protein)”, the values for the Kd in assay [7] and in assay [8] were 3800 nM and 2530 nM, respectively.

As for “GyrB 43 kDa domain (GyrB43), N-terminal ATPase-transducer domain of E. coli GyrB (domain or fragment)”, the figures for the Kd in assay [7] and in assay [8] were 12200 nM and 1770 nM, respectively.

For the substance “E. coli DNA gyrase subunit A, full-length untagged (from UniProt P0AES4 1-875) (natural protein)”, the equilibrium dissociation constant (Kd) in assay [8] worked out at 3900 nM.

Take “E. coli DNA gyrase A2B2 complex (from UniProt P0AES4 1-875; P0AES6 1-804)”: the Kd in assay [7] amounted to 1780 nM; in assay [8], 80 nM.
